Measured values: patent publication US20110002927A1 (DELENEX THERAPEUTICS, published 2011)

Assays:
[1] = molecular target: T1, recombinant human TNF-alpha (rhTNF-α) (human, UniProt P01375 77-233); assay: method not stated (data not shown)
T1 construct: PeproTech 300-01A is named for the L929 assay; also called human TNF-α

[2] = molecular target: T1, recombinant human TNF-alpha (rhTNF-α); assay: cell-based or functional assay

T1 sequence (P01375 77-233 limits assumed): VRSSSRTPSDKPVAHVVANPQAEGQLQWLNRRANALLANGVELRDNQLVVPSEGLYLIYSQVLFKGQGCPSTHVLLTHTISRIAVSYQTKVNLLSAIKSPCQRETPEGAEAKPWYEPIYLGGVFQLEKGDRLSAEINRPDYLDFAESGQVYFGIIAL

B1: ESBA105 (scFv)
scFv: DIVMTQSPSSLSASVGDRVTLTCTASQSVSNDVVWYQQRPGKAPKLLIYSAFNRYTGVPSRFSGRGYGTDFTLTISSLQPEDVAVYYCQQDYNSPRTFGQGTKLEVKRGGGGSGGGGSGGGGSSGGGSQVQLVQSGAEVKKPGASVKVSCTASGYTFTHYGMNWVRQAPGKGLEWMGWINTYTGEPTYADKFKDRFTFSLETSASTVYMELTSLTSDDTAVYYCARERGDAMDYWGQGTLVTVSS
notes: expressed in and purified from E. coli; 26 kDa; also called E105; anti-TNFalpha single-chain antibody (scFv) ESBA105
- Kd [1]: 2.19 nM
- koff [1]: 0.0126 s⁻¹
- kon [1]: 5.72e+06 M⁻¹ s⁻¹
- EC50 in the L929 TNF-α assay (rescue of actinomycin D sensitized mouse L929 fibroblasts from rhTNF-α induced apoptosis, XTT) [2]: 0.0125 mg/L
